Laboratory results reported in the supplement of paper PMC10567573.

B1: C22orf15 (parent)
chain: PRGRAHLLPNPYQQDFLGLPEELR

Variants of: B1
Experiment: protein stability index of a GFP-peptide fusion (GPS, HEK-293T) (PSI 1-6); higher = more stable
Conditions: c terminus: a fixed tail appended
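Further: lentivirally expressed fusions sorted by FACS into six bins by GFP to DsRed ratio, PSI derived from sequencing read proportions per bin multiplied by bin number.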

Protein stability index of substitutions, site by site:
F16: V 4.17, C 4.11, E 4.63, A 4.12, H 4.44, Y 4.17, R 4.15, T 4.17, P 4.12, W 3.65, S 3.83, M 4.15, L 4.23, K 4.22, N 4.36, I 4.01, D 4.92, G 4.4, Q 3.84
L7: V 4.12, P 4.06, Q 3.86, K 4, I 3.8, Y 3.92, S 4.98, W 3.24, M 4.18, N 4.33, T 5.36, R 4.12
P20: R 3.23, N 3.62, L 2.76, F 2.43, T 3.42, E 4.08, Y 2.42, I 2.75, H 3.37, D 4.07, V 2.46, Q 3.53, C 2.85, G 3.14, A 3.46, K 3.38, M 2.78, S 3.39, W 2.26
R24: Q 3.89, P 4.03, I 3.64, E 4.17, V 3.63, A 3.05, M 2.97, L 3.47, C 3.29, G 3.8, W 2.11, F 3.17, Y 3.05, T 4.11, N 3.94, H 3.3, S 3.7, K 4.12, D 4.3
E22: W 2.93, H 3.42, L 2.3, Q 3.57, A 3.47, F 3.27, K 3.47, C 3.22, V 3.11, G 3.61, Y 2.52, N 3.65, S 3.62, M 2.64, P 3.25, R 3.76, T 4.23, I 2.59, D 4.06
L17: M 3.44, E 4.94, S 4.2, R 4.03, F 3.47, W 3.37, G 3.84, I 2.85, H 4.41, K 4.42, A 4.43, N 4.28, Y 3.6, V 4.52, D 4.87, Q 4.4, P 4.3, C 4.04, T 4.17
L19: T 4.26, F 3.31, G 4.05, Q 4.69, H 4.21, K 4.28, I 3.57, D 4.68, W 3.75, Y 3.82, R 3.9, S 4, N 4.1, V 4, M 3.53, E 4.5, P 4.22, A 4.13, C 4.26
Q13: D 4.1, R 3.75, N 3.66, K 3.65, S 3.56, T 3.64, Y 3.46, P 4.21, I 3.1, F 3.1, G 4.1, L 3.43, W 2.7, E 4.05, V 3.59, H 3.74, A 3.7, M 3.42, C 3.39
Q14: E 4.47, F 3.66, W 2.93, M 3.56, Y 2.98, I 3.19, S 3.96, K 4.01, G 3.67, A 3.73, L 3.54, N 3.91, R 3.19, P 4.5, D 4.7, H 3.92, T 3.77, C 3.46, V 3.26
N10: A 3.95, Y 3.46, Q 4.12, H 4.06, R 3.53, K 3.77, F 3.35, G 4, C 3.58, W 2.88, T 4.05, I 3.97, S 4.29, M 3.54, E 3.61, V 4.14, D 4.16, L 3.69, P 4.07
E21: A 3.54, T 2.81, M 3.14, S 3.29, G 3.61, N 3.63, P 3.6, D 3.51, F 3.42, C 3.3, V 3.1, Q 3.06, L 3.02, I 2.89, Y 2.75, H 3.44, K 3.56, W 2.9, R 3.15
D15: S 3.19, M 2.97, T 3.44, L 2.99, V 3.36, E 3.74, K 3.3, H 3.17, Q 3.69, N 3.31, Y 3.2, F 2.96, P 3.76, R 3.74, A 3.38, I 3.22, W 2.98, G 3.44, C 2.67
L23: S 4.17, R 4.04, P 3.6, M 4.33, C 4.08, N 4.01, K 4.63, A 4.24, T 3.94, F 3.66, G 4.41, W 3.45, Y 3.88, Q 4.51, V 3.68, H 4.68, I 4.09, D 4.49
P9: W 2.53, L 3.35, V 3.71, Q 3.84, F 2.94, T 3.61, C 2.66, N 3.77, Y 3.32, R 3.18, M 3.8, I 2.88, E 3.89, H 3.29, K 3.73, S 3.88, D 3.79, A 3.66, G 2.77
P11: L 3.42, E 4.74, D 4.12, S 3.83, H 3.33, V 3.5, A 3.41, G 4.3, W 2.71, Q 4.35, F 3.44, M 3.72, T 4.1, N 4.24, C 3.51, R 3.33, I 3.55, Y 3.56, K 4.04
G18: H 4.19, C 3.9, I 3.49, S 3.94, D 4.66, L 3.7, R 3.32, M 3.98, Y 3.34, Q 4.27, T 4.05, A 4.25, E 4.36, V 3.73, K 4.13, N 4.25, F 3.24, W 2.98, P 3.71
Y12: F 3.5, N 4.61, A 4.51, M 4.61, P 4.41, R 4.33, K 4.11, I 4.36, E 4.54, W 2.87, H 4.02, C 3.84, D 4.53, G 4.87, L 3.85, Q 4.07, T 4.44, S 4.54, V 4.17
L8: P 4, M 3.95, Q 4.24, T 3.23, W 2.56, E 3.96, H 3.86, A 3.58, I 3.94, K 3.98, S 3.93, C 4.14, Y 3.25, G 3.59, V 4.02, D 4.6, N 4.09, F 3.49, R 3.56
